In doi:10.1101/2022.07.01.498528 (bioRxiv, 2022):

Legend:
[1] = molecular target: VIM-4 β-lactamase (class B) (Pseudomonas aeruginosa, VIM-4, UniProt Q8KRJ3, strain); assay: BLI
[2] = molecular target: OXA-48 β-lactamase (class D) (Klebsiella pneumoniae, OXA-48, UniProt Q6XEC0); assay: BLI
[3] = molecular target: AmpC P99 of Enterobacter cloacae (class C β-lactamase) (Enterobacter cloacae P99, UniProt P05364); assay: BLI
[4] = molecular target: TEM-1 β-lactamase (class A) (Escherichia coli (assumed), TEM-1, UniProt P62593); assay: BLI
TEM-1 β-lactamase (class A), sequence (P62593 24-286): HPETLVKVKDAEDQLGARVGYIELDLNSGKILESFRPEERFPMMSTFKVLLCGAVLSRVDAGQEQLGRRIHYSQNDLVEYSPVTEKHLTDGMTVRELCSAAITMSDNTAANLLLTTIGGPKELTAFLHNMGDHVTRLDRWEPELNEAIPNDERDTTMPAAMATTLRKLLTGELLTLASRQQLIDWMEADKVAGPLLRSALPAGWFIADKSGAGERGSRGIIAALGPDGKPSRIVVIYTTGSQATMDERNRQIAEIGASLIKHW

[5] = molecular target: CMY-1 β-lactamase (class C) (Klebsiella pneumoniae, CMY-1, UniProt P71420, strain); assay: BLI
CMY-58 β-lactamase = CMY-58 β-lactamase (Escherichia coli entry (host isolate …, UniProt F1C3E3, strain)); assay: ELISA
CMY-60 β-lactamase = CMY-60 β-lactamase (Escherichia coli entry (host isolate …, UniProt G3F7G8, strain)); assay: ELISA
CMY-16 β-lactamase = CMY-16 β-lactamase (Proteus mirabilis entry (host isolate …, UniProt Q4LCT4, strain)); assay: ELISA
CMY-61 β-lactamase = CMY-61 β-lactamase (Escherichia coli entry (host isolate …, UniProt G3F7G9, strain)); assay: ELISA
CMY-42 β-lactamase = CMY-42 β-lactamase (Escherichia coli entry (host isolate …, UniProt F4YXC2, strain)); assay: ELISA

OXA-48 β-lactamase (class D), sequence (Q6XEC0 23-265): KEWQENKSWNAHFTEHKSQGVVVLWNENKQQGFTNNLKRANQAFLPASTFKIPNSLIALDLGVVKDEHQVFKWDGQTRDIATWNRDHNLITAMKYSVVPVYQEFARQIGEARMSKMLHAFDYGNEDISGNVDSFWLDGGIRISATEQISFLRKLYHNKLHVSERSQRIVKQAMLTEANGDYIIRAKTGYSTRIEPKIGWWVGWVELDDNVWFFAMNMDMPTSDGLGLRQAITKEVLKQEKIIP
AmpC P99 of Enterobacter cloacae (class C β-lactamase), sequence (P05364 21-381): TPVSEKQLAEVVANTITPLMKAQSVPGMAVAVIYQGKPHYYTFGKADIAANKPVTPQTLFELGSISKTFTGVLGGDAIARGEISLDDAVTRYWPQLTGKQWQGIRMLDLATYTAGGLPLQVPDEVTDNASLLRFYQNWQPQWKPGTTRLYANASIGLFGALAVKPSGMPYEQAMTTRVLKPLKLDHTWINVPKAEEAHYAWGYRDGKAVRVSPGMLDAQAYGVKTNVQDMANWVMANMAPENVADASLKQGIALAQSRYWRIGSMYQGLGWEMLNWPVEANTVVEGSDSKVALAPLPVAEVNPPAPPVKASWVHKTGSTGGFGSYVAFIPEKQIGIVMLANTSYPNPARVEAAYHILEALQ

B1: VHH cAb_(CMY-2)(250) (VHH)
VHH: QVQLVESGGGLVQPGGSLRLSCAASGSIFSIYGMGWYRQAPGKQRELVAEITSGGSTNYADSVKGRFTISRDNAKNTVYLQMNSLNPEDTAVYYCNADGTMWGAGDYWGQGTQVTVSS
B1: no binding (tested: 500 nM) [1]; no binding (tested: 500 nM) [2]; binds [3]. B1: no binding (tested: 500 nM) [4].

B2: VHH cAb_(CMY-2)(272) (VHH)
VHH: QVQLVESGGGLVQPGGSLRLSCAASGSIFMIYAMGWYRQAPGKQRELVADITSGGSTDYTDSVKGRFTISRDKNTVYLQMNSLKPEDTAVYYCNADHGPGFGYDYWGQGTQVTVSS
B2: no binding (tested: 500 nM) [1]; no binding (tested: 500 nM) [2]; no binding (tested: 500 nM) [5]. B2: no binding (tested: 500 nM) [3]; no binding (tested: 500 nM) [4].

B3: VHH cAb_(CMY-2)(254) (VHH)
VHH: QVQLVESGGGMVQPGGSLRLSCAASGFTFSNYDMSWVRRAPGKGPEWVSTINTGGGSTSYADSVKGRFTISRDNAKNTLYLQMNSLKPEDTALYYCTIDRGLHYSDLGEYDYWGQGTQVTVSS
B3: no binding (tested: 500 nM) [1]; no binding (tested: 500 nM) [2]; no binding (tested: 500 nM) [5]. B3: no binding (tested: 500 nM) [3]; no binding (tested: 500 nM) [4]; binds (CMY-58 β-lactamase). B3: binds (CMY-60 β-lactamase); binds (CMY-16 β-lactamase); binds (CMY-61 β-lactamase). B3: binds (CMY-42 β-lactamase).
